Tests used:
[1] = biological target: RacCS203 RBD (recombinant) (Bat coronavirus RacCS203); experiment: ELISA
Rs4231 RBD (recombinant) = Rs4231 RBD (recombinant) (Bat SARS-like coronavirus, isolate …, UniProt A0A2D1PXA9); experiment: ELISA
[2] = biological target: T1, SARS-CoV-2 RBD (recombinant) (SARS-CoV-2, UniProt P0DTC2); experiment: ELISA
WIV-1 RBD (recombinant) = WIV-1 RBD (recombinant) (bat sarbecovirus WIV-1, UniProt U5WI05); experiment: ELISA
[3] = biological target: T1, SARS-CoV-2 RBD (recombinant); experiment: flow cytometry on cells

B1: V1WT_41 IgG (antibody, V domains shown)
VH: QVQLQESGPGLVKPSETVSVTCTVSGGSITRSNYYWGWIRQPPGKGLEWIGSIFYNGNTNYNPSLKSRLTISVDTSKNQFSLKLSSVTAADTAVYYCARTAPYYYDRSGYYQKEEYFQRWGQGTLVTVSS
VL: EIVMTQSPSTLSASVGDRVTITCRASQSISTWLAWYQQKPGKAPNLLIYQASSLESGVPSRFSGSGSGTEFTLTISSLQPDDFATYYCQQYNNYPRTFGQGTKLEIK
binding result [1]: binds
binding result (Rs4231 RBD (recombinant)): binds
binding result [2]: binds

B2: V1WT_06 IgG (antibody, V domains shown)
VH: EVQLVQSGAEVKKPGASVKVSCKASGYTFSSHGISWVRQAPGQGLEWMGWISTYNGNTNSAQNLQGRVTMTADTSTSTAYMELRSLRSDDTAVYYCARGPWGYCSGTSCYYWTPDNPAYSYHGMDVWGQGTTVTVSS
VL: not shown
fold increase in binding of the IgG over the Fab [2]: 1.3 fold

B3: V1WT_06 Fab (Fab, V domains shown)
VH: B2 VH
VL: not shown
binding result (WIV-1 RBD (recombinant)): binds

B4: VA14_26 IgG (antibody, V domains shown)
VH: QVQLQQWGAGLLKPSDTLSLTCGISGGPFSGYYWSWIRQPPGKGLEWLGEINHSGITTYNPSLKSRGTISVDTSKRQISLKLASVTAADTAVYYCARFAYGDYGWDYSSDMDVWGKGTTVTVSS
VL: DIQLTQSPSTLSASVGDRVTITCRASQSISTWLAWHQQIPGKAPKLLIYRASTLQSGVPSRFSGSGSGTEFTLTISSLQPDDFATYYCQQYYSVRTFGQGTKVDIK
binding result [3]: binds

Reference: doi:10.1101/2025.09.17.674891 (bioRxiv, 2025)
